Assay results: publication PMC11869522, “Competitive displacement of lipoprotein lipase from heparan sulfate is orchestrated by a disordered acidic cluster in GPIHBP1” (Journal of Lipid Research, 2025)
Where no end group is shown, it is not given here. The star is where a group is joined. sulfate = O=S(=O)(O)*

T1: Human LPL (lipoprotein lipase) (human, UniProt P06858 28-475, R324A)
T1 sequence (looked up): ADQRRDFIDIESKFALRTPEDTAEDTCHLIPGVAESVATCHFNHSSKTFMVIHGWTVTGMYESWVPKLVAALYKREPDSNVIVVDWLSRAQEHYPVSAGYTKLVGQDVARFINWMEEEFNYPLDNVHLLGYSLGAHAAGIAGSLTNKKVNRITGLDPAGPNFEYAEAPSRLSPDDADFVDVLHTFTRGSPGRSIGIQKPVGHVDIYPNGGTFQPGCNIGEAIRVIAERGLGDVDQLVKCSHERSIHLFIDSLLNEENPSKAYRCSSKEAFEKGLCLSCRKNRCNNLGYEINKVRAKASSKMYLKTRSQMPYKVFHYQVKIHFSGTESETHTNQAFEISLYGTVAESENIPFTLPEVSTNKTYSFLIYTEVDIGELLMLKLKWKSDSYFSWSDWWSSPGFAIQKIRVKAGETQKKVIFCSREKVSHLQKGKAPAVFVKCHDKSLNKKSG

T2: Bovine LPL (bovine, UniProt P11151 29-478)
T2 construct: also called bLPL; source: purified from fresh bovine milk
T2 sequence (looked up): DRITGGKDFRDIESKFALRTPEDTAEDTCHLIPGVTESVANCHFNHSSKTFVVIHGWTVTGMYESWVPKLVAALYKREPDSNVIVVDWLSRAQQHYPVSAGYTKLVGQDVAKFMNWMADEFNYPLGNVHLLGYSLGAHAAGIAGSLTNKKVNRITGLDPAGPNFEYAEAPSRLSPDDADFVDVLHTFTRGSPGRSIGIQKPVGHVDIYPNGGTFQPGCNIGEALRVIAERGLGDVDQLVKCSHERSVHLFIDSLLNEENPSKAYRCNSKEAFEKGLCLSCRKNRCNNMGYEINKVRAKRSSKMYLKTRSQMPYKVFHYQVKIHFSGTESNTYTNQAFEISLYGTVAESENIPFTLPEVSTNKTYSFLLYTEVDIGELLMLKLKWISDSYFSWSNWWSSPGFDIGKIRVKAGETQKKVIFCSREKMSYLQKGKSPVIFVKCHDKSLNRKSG


Legend:
[1] = system: hLPL bound to immobilized heparan sulfate; test: GPIHBP1-mediated extraction of LPL from HSPGs (SPR, immobilized heparin dp4 fragments); assay type: binding, human; settings: 12.5–200 nM GPIHBP1 proteins, 0.1–1.6 μM sulfated GPIHBP1^1–33, or GPIHBP1^34–131 with 1 μM sulfated GPIHBP1^1–33
Description: To mimic electrostatic conditions found in the sub-endothelial spaces where surface-bound heparan-sulfate proteoglycans (HSPGs) are abundant, we designed a surrogate sensor surface using a streptavidin-coated CM5 sensor chip to capture high densities of biotinylated synthetic heparin dp4 fragments ([28], [29]). The reference surface was loaded with a neutral and non-sulfated fragment (M09 S00 from Iduron), while the active surface was loaded with a negatively charged fragment (M09 S08a from Iduron) containing N- and O-6-linked sulfations on each of the […] glucosamine residues in the DP4 fragment. Only the highly sulfated oligosaccharide bound LPL, and those interactions were transient with high off-rates. Despite the very transient nature of this binding, we created a stable reservoir of hLPL on the sensor surface by combining the fast kinetics of polyelectrolyte interactions with severe mass transport limitation—the latter phenomenon impedes LPL escape from the surface due to the fast rebinding that is favored by the high densities of immobilized heparin fragments (300 fmol/mm^2). For each experiment, 12.5 nM hLPL was loaded for 100 s at a flow rate of 20 μl/min in 10 mM Hepes (pH 7.4), 150 mM NaCl, 4 mM CaCl2, 10% (vol/vol) glycerol, 0.05% (vol/vol) surfactant P20, 1 mg/ml defatted BSA, […], and 0.05% (wt/vol) NaN3.
To compare the ability of GPIHBP1^1–131 and its charge variants to bind and extract hLPL from this dynamic reservoir, we injected twofold serial dilutions of 1.25–200 nM GPIHBP1^1–131; 1.25–200 nM GPIHBP1^Cluster1-neutral; GPIHBP1^Cluster2-neutral; 1.25–200 nM GPIHBP1^34–131; 0.1–1.6 μM GPIHBP1^1–33 with Tyr^18–SO4; or 1.25–200 nM GPIHBP1^34–131 in the presence of 1 μM sulfated GPIHBP1^1–33 for 250 s at 20 μl/min in 10 mM Hepes (pH 7.4), 150 mM NaCl, 4 mM CaCl2, 10% (vol/vol) glycerol, 0.05% (vol/vol) surfactant P20, 0.2 mg/ml fatty acid-free BSA, and 0.05% (wt/vol) NaN3. At the end of each cycle, two consecutive injections of 10 μl 3 M guanidinium chloride regenerated the chip.
GPIHBP1’s ability to displace LPL from its HSPG-bound state in the sub-endothelial spaces is essential for the trans-endothelial trafficking of LPL to the luminal surface of capillary cells ([29]). The importance of the acidic tail in this process is supported by solid evidence from surrogate in vitro models and in vivo studies in gene-edited mice ([28], [29]). It was therefore important to determine the relative impact of the two charge-clusters in GPIHBP1 on their ability to disrupt LPL•HSPG interactions. To gain this insight, we measured the ability of different GPIHBP1 charge variants to displace hLPL from a SPR sensor chip surface coupled with a high density of immobilized small heparin-like fragments ([28]). […]

bLPL = test: Lipase activity assay, protection against spontaneous LPL inactivation; assay type: biochemical, bovine; settings: 15 nM bLPL preincubated 20 min at 22°C with 1 μM synthetic peptide; Intralipid substrate, NEFA release 25 min; triplicates
Method: To determine lipase activity, 90 μl incubation mixture containing 166 mM NaCl, 28 U/ml heparin, 10% (w/v) fatty acid-free serum albumin, 250 mM Tris-HCl (pH 8.5), 0.16% intralipid, and 6% (v/v) chicken serum was mixed with 60 μl of sample buffer consisting of 150 mM NaCl, 0.1% (w/v) fatty acid-free serum albumin, 0.01% (v/v) Triton X-100, 10 mM HEPES (pH 7.4) and 15 nM bLPL. After 25 min incubation, non-esterified fatty acids (NEFA) released by LPL were quantified using the NEFA-HR kit according to manufacturer protocol (Wako Chemicals).
To address this question, we preincubated 15 nM purified bLPL for 20 min in the presence of 1 μM of synthetic peptides with different chain lengths and covering distinct regions of the first 33 residues in GPIHBP1 (supplemental Table S1). The residual bLPL activity was subsequently assessed by quantifying the release of non-esterified free fatty acids after a 25-min incubation with a lipid substrate emulsion (Intralipid) using the NEFA2-kit. […]
Fig. 2 LPL activity after incubation with synthetic peptides covering the acidic tail of GPIHBP^1–33 Purified bLPL (15 nM) was preincubated either alone or in the presence of 1 μM synthetic peptides or 150 nM GPIHBP1 for 20 min in 10 mM HEPES, 150 mM NaCl pH 7.4 at 22°C before LPL activity was assessed using Intralipid® as substrate. […]

[2] = molecular target: T1, Human LPL (lipoprotein lipase); test: cell-based or functional assay
Bovine LPL = molecular target: T2, Bovine LPL; test: native gel or EMSA; native PAGE of purified GPIHBP1 charge variants with hLPL, bLPL or mLPL (supplemental Fig. S1); settings: both partners purified

Row | Molecule | competitive displacement of HSPG-bound hLPL (in words) [1] | preserving bLPL activity against spontaneous inactivation (bLPL) | reduction in hLPL levels on the heparan sulfate sensor surface after GPIHBP1 injections (12.5–200 nM), SPR [2] | binding result (Bovine LPL)
1 | sulfated GPIHBP1^1–33: GPIHBP1^1–33 peptide carrying a tyrosyl-sulfation (Tyr^18) (QTQQEEEEEDEDHGPDDY(sulfate)DEEDEDEVEEEETNR; UniProt Q8IV16 21-53, looked up, fragment) | not perturbed |  |  | 
2 | GPIHBP1^1–33: Synthetic peptide representing the N-terminal acidic tail of GPIHBP1, first 33 residues (QTQQEEEEEDEDHGPDDYDEEDEDEVEEEETNR; UniProt Q8IV16 21-53, looked up, fragment) | neither GPIHBP1^34–131 nor GPIHBP1^1–33 alone, or in combination, induced any detachment of LPL | as efficient as 150 nM GPIHBP1^1–131 |  | 
3 | GPIHBP1^1–131/R38G (domain or fragment, human, UniProt Q8IV16 21-151, looked up, sulfated Tyr18; one bi-antennary N-linked glycosylation) QTQQEEEEEDEDHGPDDYDEEDEDEVEEEETNRLPGGGSRVLLRCYTCKSLPRDERCNLTQNCSHGQTCTTLIAHGNTESGLLTTHSTWCTDSCQPITKTVEGTQVTMTCCQSSLCNVPPWQSSRVQDPTG |  |  | 68.1% | 
4 | GPIHBP1^Cluster1-neutral (domain or fragment, human, UniProt Q8IV16 21-151, looked up, Tyr18 sulfation present in less than 40%; one bi-antennary N-linked glycosylation, Construct from VectorBuilder Inc; source: Drosophila S2-cells, secreted, purified, D3 tag removed; not shown: uPAR domain III, N-terminal, cleaved) QTQQQQQQQNQNHGPNNYDEEDEDEVEEEETNRLPGGGSRVLLRCYTCKSLPRDERCNLTQNCSHGQTCTTLIAHGNTESGLLTTHSTWCTDSCQPITKTVEGTQVTMTCCQSSLCNVPPWQSSRVQDPTG |  |  | 34.8% | binds
5 | GPIHBP1^Cluster2-neutral (domain or fragment, human, UniProt Q8IV16 21-151, looked up, Tyr18 sulfation absent; one bi-antennary N-linked glycosylation, Construct from VectorBuilder Inc; source: Drosophila S2-cells, secreted, purified, D3 tag removed; not shown: uPAR domain III, N-terminal, cleaved) QTQQEEEEEDEDHGPDDYNQQNQNQVQQQQTNRLPGGGSRVLLRCYTCKSLPRDERCNLTQNCSHGQTCTTLIAHGNTESGLLTTHSTWCTDSCQPITKTVEGTQVTMTCCQSSLCNVPPWQSSRVQDPTG |  |  | 1.2% | binds
